Measurements taken from paper doi:10.1101/2024.02.13.580058 (bioRxiv, 2024).

B1: Bess1 (antibody)
VH: QVQLRESGPSLVKPSQTLSLTCTVSGISLSDKAVGWVRQAPGKALEWLGSIDAGGSTGYNPGLKSRLSITTDNSKSQVSLSMSGVTTEDSATYYCTTVHQKTLKQKTCPEGYSDDDGCDDSYGCGDDCCCYGGYSDYGGYEYACCSRTYTYEFHVDAWGQGLLVTVSS
VL: QAVLNQPSSVSGSLGQRVSITCSGSSSNVGNGYVSWYQLIPGSAPRTLIYGDTSRASGVPDRFSGSRSGNTATLTISSLQAEDEADYFCASAEDSSSNAVFGSGTTLTVL
notes: also called Bess1_WT; source: Expi293 or 293F cells, transient, purified (Protein A Sepharose or Praesto AP)
B2: ElsE3 (antibody)
VH: KVQLQESGPSLVKPSQTLSLTCATSGFSLSDKTVGWVRQAPGKALEWLGSIDTSGNTGYNPLLKFRLSITKDNSKSQVSLSLSSATTADSATYYCTTVHQQTRKSCPDGYSFGYDCGFHGYGSEDCYPDCSDILTSDVVGPIDAYELHVDAWGQGLLVTVSS
VL: QAVLTQPSSVSGSLGQRVSITCSGSSNNVGNGYVSWYQVIPGSAPRTLIYGDTSRASGVPDRFSGSRSGNTATLTITSLQAEDEADYFCSSAEDSSSNAIFGSGTTLTVL
notes: source: Expi293 or 293F cells, transient, purified (Protein A Sepharose or Praesto AP)
B3: ElsE4 (antibody)
VH: QVQLRESGPSLVKPSQTLSLTCTTSGFSLSDKTVGWVRQAPGKALEWLGSRDSSGKTAYNPGLKSRLSITNDNSKSQVSLSLSSVSTADSATYYCTTVHQQTRKSCPDGWSFGWDCGFHGYGVGDCYDDCTDILSSQTLSPTDTYELHIDAWGQGLLVTVSS
VL: QAVLTQPSSVSGSLGQTVSITCSGTSSNVGNGYVTWYQVIPRSAPRTLIFGDTSRASGVPDRFSGSRSGNTATLTISSLQAEDEADYFCASAEDTSSNVVFGSGTTLTVL
notes: as for B2
B4: ElsE5 (antibody)
VH: QVQLQESGPSLVKPSQTLSLTCTTSGFSLSDKTVGWVRQAPGKALEWLGSIDTSGRTGYNPGLKSRLDITKDNPKRQVSLSLSSVTTADSATYYCTTVHQQTRKGCPDGWSFGWDCGFHGYGREDCYDDCTDILSSQTLSPTDTYEFHVDAWGQGLLVTVSS
VL: QAVLTQPSSVSGSLGQRVSITCSGSSSNVGNGYVSWYQLIPGSAPRTLIYGDTTRASGVPDRFSGSRSGNTATLSITSLQAEDETDYFCASAEDSSSNAVFGSGTTLTVL
notes: as for B2
B5: ElsE6 (antibody)
VH: KVQLQESGPSLVKPSQTLSLTCTTSGFSLSDNAVGWVRQAPGKALEWLGSIDSGGSTGYNPGLKSRLSITKDNSKSQVSLSVSSVTTADSATYYCTTVHQQTRKSCPAGYTLAKDCGFYGYGSEDCYDDCSDILSSHTLSPTTTYELHVDAWGQGLLVTVSS
VL: QAVLTQPSSVSGSLGQRVSITCSGSSTNVGNGYVSWYQLIPGSAPRTLIYGDTNRASGVPDRFSGSRSGNTATLTISSLQAEDEADYFCLSAEDSSSNAIFGSGTTLIVL
notes: as for B2
B6: ElsE7 (antibody)
VH: QVQLQESGPSLVKPSQTLSLTCTTSGFSLSDNTVGWVRQAPGKALQWLGSITPSGSTNYNPGLKSRLGITKDNSNSQVSLSLTSATAADSATYYCTTVHQQTRKSCPDGWMFGFDCGFHGWGSEDCVDDCSDILSAQTLSPIYTNAYHVDAWGQGLLVTVSS
VL: QAVLTQPSSVSGSLGQTVSITCSGLSNNGENGDVSWYQLIPGSAPHTLMYGDTSRASGVPDRFSGSRSGNTASLTISSLQAEDEADYFCASTGDEMISLLFGSGTTLTVL
notes: as for B2
B7: ElsE8 (antibody)
VH: KVQLQESGPSLVKPSQTLSLTCTTSGFSLSDKGIAWVRQAPGKALEWLGSTDTTGSTNYNPGLKSRVIVTKDNSKSQVSLSLSSVTIADSATYYCTAVVQETRKSCPDGWRFGWDCGFHGYGTEDCYEDCVDILSSETVSSTDRYELHVDAWGQGLLVTVSS
VL: QAVLSQPSSVSGSLGQRVSITCSGSSSNVGNGYVSWYQQFPGSAPRTLIYGDTGRSSGVPDRFSGSRSGNTATLSISSLQAEDEADYFCASAEGSSKHAVFGSGTTLTVL
notes: as for B2
B8: ElsE9 (antibody)
VH: KVQLRESGPSLVKPSQTLSLTCTTSGFSFSDKTVGWVRQAPGKALEWLGSIDTSGTTGYNPGLKSRLSITRDDSKSQVSLSLSSVTTADLATYYCTTVRQQVHKTCPQGWRFGWDCGFHGYGSDDCYEDCIDILSSQTLSAEDTYELHVDAWGQGLLVTVSS
VL: QAVLTQPQSVRGSLGQRVSITCSGSSSNVGNGYVSWYQLIPGSAPRTLMYGDTTRASGVPDRFSGSRSGNTATLTISSLQAEDEADYFCASADGSSLHVAFGSGTTLTVL
notes: as for B2
B9: ElsE10 (antibody)
VH: KVQLRESGPSLVKPSQTLSLTCTTSGFSLSEKTVGWVRQAPGKPLEWLGTINTSGSGGSNPGLKSRLHITKDNSQSQVSLSLSSVTTADSATYYCTTVHQQTRKRCPDGWSFGWDCGFSGYGSEDCYDDCTDILSSNTLSPTDTYELHVDAWGQGLLVTVSS
VL: QAVLTQPSSVSGSLGQRVSITCSGSSSNVGNGYVSWYQLIPGSAPRTLIYGDTSRASGVPDRFSGSRSGNTATLTISSLQAEDEADYFCASAEGSSSNIVFGVGTTLTVL
notes: as for B2
B10: ElsE11 (antibody)
VH: KVQLRESGPSLVKPSQTLSLTCTTSGFSLSDKTVGWVRQAPGKALEWLGSTDTSGNTGYNPGLKSRLSITKDNSKSQVSLSVSSVSTADSATYYCTTVRQQTRKSCPDGWTLAKDCGFYGYGSEDCYDDCTDILSSNTLSPTTTHEFNVDAWGQGLLVTVSS
VL: QAVLTQPSSVSGSLGQRVSITCSGSSSNTGNGAVSWYQLIPGSAPRTLIYGDTSRTSGVPDRFSGSRSGNIATLTISSLQAEDEGDYFCGSAEDSSSNAIFGSGTTLTVL
notes: as for B2
B11: Bess2 (antibody)
VH: KVQLRESGPSLVKPSQTLSLTCTVSGFSLSDKAVGWVRQAPGKALEWLGSIDTGGSTGYNPGLKSRLSITKDNSKSQVSLSVTSVTTEDSTTYYCTTVHQTTKTTKKCPDGYNYDDGCASDLGCGEADCCCYGGYDEYGGYLYSCCSYSYTYEWYVDAWGQGLLVTVSS
VL: QAVLNQPSSVSGSLGQRVSITCSGSSSNVGNGYVSWYQLIPGSAPRTLIYGDTSRASGVPDRFSGSRSGNTATLTISSLQAEDEADYFCASAEDSSSNAVFGSGTTLTVL
notes: as for B2
B12: Bess3 (antibody)
VH: QVQLRESGPSLVKPSQTLSLTCTVSGFSLSDKAVGWVRQAPGKALEWLGSIDNGENIGYNPGLKSRLSITKDNSKSQVSLSVSSVTTEDSATYYCATVHQTTKTTKQCPDGYNYDDGCASDLGCGEADCCCYGGYDDYGGYLYSCCSYTYTYEWYVDTWGQGLLVTVSS
VL: QAVLNQPSSVSGSLGQRVSITCSGSSSNVGNGYVSWYQLIPGSAPRTLIYGDTSRASGVPDRFSGSRSGNTATLTISSLQAEDEADYFCASAEDSSSNAVFGSGTTLTVL
notes: as for B2
B13: Bess5 (antibody)
VH: QVQLQESGPSLVKPSQTLSLMCAASGFSLSDKTVGWVRQAPGKALEWLGSIDSSGSTGYNPGLKSRLTITKDSSKSQVSLSVSSVTTEDSATYYCTTVHQQTRNKEKTCPGGEDCGIGCCCAGCSATDYGCWDGSSYASYSYIYTYDIHVDAWGQGLLVTVSS
VL: QAVLNQPSSVSGSLGQRVSITCSGSSSNVGNGYVSWYQLIPGSAPRTLIYGDTSRASGVPDRFSGSRSGNTATLTISSLQAEDEADYFCASAEDSSSNAVFGSGTTLTVL
notes: as for B2
B14: Bess6 (antibody)
VH: KVQLRESGPSLVKPSQTLSLICTVSGFSLSDKAVGWVRQAPGKALEWLGSIDTAGTTDHHPGLKSRLSITKDNSKNQVSLSLSSVTTEDSATYYCTTVHQPTSKQYSCPDGASVRTGGGWRWLCRGHDCCCVVEYIAYEQTPCTLTRTYEWHIDAWGQGLLVTVSS
VL: QAVLNQPSSVSGSLGQRVSITCSGSSSNVGNGYVSWYQLIPGSAPRTLIYGDTSRASGVPDRFSGSRSGNTATLTISSLQAEDEADYFCASAEDSSSNAVFGSGTTLTVL
notes: as for B2
B15: Bess7 (antibody)
VH: QVQLRESGPSLVKPSQTLSLTCTVSGFSLNDKAVGWVRQAPGRALEWLGSVSTGGSTTYNPGLKPRLSITKDNSKSQISLTVTSVTTEDSATYYCTTVHQTTKTTKECPEGYNWDDGCGSELGCGGADCCCWGGVDEYAGDLYSCCSVAHTYEWYVDAWGQGLLVTVSS
VL: QAVLNQPSSVSGSLGQRVSITCSGSSSNVGNGYVSWYQLIPGSAPRTLIYGDTSRASGVPDRFSGSRSGNTATLTISSLQAEDEADYFCASAEDSSSNAVFGSGTTLTVL
notes: as for B2
B16: Bess8 (antibody)
VH: QVQLRESGPSLVKPSQTLSLTCTVSGFSLSDKAVGWVRQAPGKALEWLGSIDIGGSTGYNPGLKSRLSITKDNSKSQVSLSVTSVTTEDSATYYCTIVYQTTKTTKKCPDGYNYDDGCASDLGCGEADCCCYGGDDEYAGHLYSCCSYSHTYEWYVGAWGQGLLVTVSS
VL: QAVLNQPSSVSGSLGQRVSITCSGSSSNVGNGYVSWYQLIPGSAPRTLIYGDTSRASGVPDRFSGSRSGNTATLTISSLQAEDEADYFCASAEDSSSNAVFGSGTTLTVL
notes: as for B2
B17: ElsE1 (antibody)
VH: KVQLRESGPSLIKPSQTLSLTCTTSIFSLIDKTVGWVRQAPGKSLEWLGSIDTSGNTGYNPGLKSRLHITKDNSRSQVSLSLSSVTTADSATYYCTTVHQQTRKGCPDGWRFGWDCGFHGYGQEDCYEDCIDILSSQTLSPTDAYEFHVDAWGQGLLVTVSS
VL: QAVLTQPSSVSGSLGQRVSITCSGSSGNVGNGYVSWYQLIPGSAPRTLIYGDTSRASGVPDRFSGSRSGNTATLTITSLQAEDETDYFCASAEGSSNNAVFGSGTTLTVL
notes: as for B2

What follows are binders tested against BG505 gp120 (HIV-1 isolate BG505 (clade A), UniProt Q2N0S6) (assay: ELISA; 250 ng BG505 gp120 coated on the plate; monoclonal antibodies from 20 µg/mL in seven 6-fold dilutions, 1 hr, room temperature; detected with alkaline phosphatase anti-human F(ab')2). Settings: both partners purified.

| Binder | binding result |
| --- | --- |
| B1 | no binding (tested: 20 µg/mL) |
| B2 | no binding (tested: 20 µg/mL) |
| B3 | no binding (tested: 20 µg/mL) |
| B4 | no binding (tested: 20 µg/mL) |
| B5 | no binding (tested: 20 µg/mL) |
| B6 | no binding (tested: 20 µg/mL) |
| B7 | no binding (tested: 20 µg/mL) |
| B8 | no binding (tested: 20 µg/mL) |
| B9 | no binding (tested: 20 µg/mL) |
| B10 | no binding (tested: 20 µg/mL) |
| B11 | no binding (tested: 20 µg/mL) |
| B12 | no binding (tested: 20 µg/mL) |
| B13 | no binding (tested: 20 µg/mL) |
| B14 | no binding (tested: 20 µg/mL) |
| B15 | no binding (tested: 20 µg/mL) |
| B16 | no binding (tested: 20 µg/mL) |
| B17 | no binding (tested: 20 µg/mL) |
